Substrate: O=[N+]([O-])c1ccc(O[C@H]2O[C@H](CO)[C@@H](O[C@H]3O[C@H](CO)[C@@H](O[C@H]4O[C@H](CO)[C@@H](O)[C@H](O)[C@H]4O)[C@H](O)[C@H]3O)[C@H](O)[C@H]2O)c(Cl)c1
Experiment: purified protein
Type: biochemical, Panulirus argus
Conditions: 50 mM MES pH 5.5, 0.3 M NaCl, 25 mM CaCl2, 37°C

B1: lobster α-amylase (PaAmy) (Panulirus argus) (protein)
chain: QWDPHVTNGQAIVHLFEWRWSDIASECENFLGPRGYGGVQVSPPNENVVVYQDEKSRPWWERYQPVSYKIATRSGDEASFKDMVNRCNNAGVRIYVDAVINHMSGWWPTGTAATGGSTFDAGAESYPAVPYSAFDFNDANCHTASGTIEDYGDAEQVRNCKLVGLNDLNQGTDYVRGKIRDYLNTLTSWGVAGFRVDATKHMWPGDLKAIFDSLDDLSPHYFDAGSRPFIFQEVIDLGGEPITSSQYVGNGRVTEFKYGKSLGESFNGNNPLKWFSTFGESWGMVDRGNAVVFIDNHDNQRTGGDMILTFRSSKWYKMANAYMLAWPYGFPRVMSSFYWDQWWENGHDKNDWTGPPHDGSYNIVGPTFNPDDSCGNGWICEHRWRQIYNMVQFRNVAHGTDMNDWWDNGSNQISFCRGDRGFIAINNDPWDMKESRQTCLSSGTYCDVISGSKIQGSCTGKTVTVNADGFAYIEILNSEEDGVLAIHRDSKL
notes: native, purified from digestive gland pool; mature enzyme after 21-residue signal peptide (cleavage A21/Q22 predicted); precursor 513 residues; N-glycosylation N429 predicted
Km: 0.36 ± 0.052 mM | kcat: 28.42 ± 1.203 s⁻¹

Source: PMC4938498, “Molecular, Biochemical, and Dietary Regulation Features of α-Amylase in a Carnivorous Crustacean, the Spiny Lobster Panulirus argus” (PLoS ONE, 2016)
